The results in this text go back to patent publication US20150353647A1 (UNIVERSITY OF TENNESSEE RESEARCH FOUNDATION, published 2015).

For the assay, the target named is human tissue plasminogen activator (TPA) (human, UniProt P00750 36-562). Put plainly: cell-based or functional assay.
Sequence of human tissue plasminogen activator (TPA) (P00750 36-562 limits assumed): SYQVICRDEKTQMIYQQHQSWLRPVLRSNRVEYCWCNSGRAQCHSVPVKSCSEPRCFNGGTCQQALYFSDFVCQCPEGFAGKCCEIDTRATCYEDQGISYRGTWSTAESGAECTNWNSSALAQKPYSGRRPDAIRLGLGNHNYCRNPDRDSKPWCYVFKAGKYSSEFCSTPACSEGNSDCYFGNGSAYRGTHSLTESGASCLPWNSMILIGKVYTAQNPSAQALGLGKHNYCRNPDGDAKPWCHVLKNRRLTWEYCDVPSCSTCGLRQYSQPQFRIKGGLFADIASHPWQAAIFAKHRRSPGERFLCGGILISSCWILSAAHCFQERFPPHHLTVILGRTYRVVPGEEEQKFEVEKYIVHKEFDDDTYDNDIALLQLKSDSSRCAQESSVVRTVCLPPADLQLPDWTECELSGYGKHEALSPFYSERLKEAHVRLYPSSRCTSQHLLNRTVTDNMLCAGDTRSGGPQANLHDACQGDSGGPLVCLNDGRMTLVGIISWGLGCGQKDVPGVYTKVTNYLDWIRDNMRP

B1: stable mutant human PAI-1 (four amino acid substitutions, N150H, K154T, Q319L, and M354I) (other, UniProt P05121 24-402, looked up)
chain: VHHPPSYVAHLASDFGVRVFQQVAQASKDRNVVFSPYGVASVLAMLQLTTGGETQQQIQAAMGFKIDDKGMAPALRHLYKELMGPWNKDEISTTDAIFVQRDLKLVQGFMPHFFRLFRSTVKQVDFSEVERARFIINDWVKTHTKGMISHLLGTGAVDQLTRLVLVNALYFNGQWKTPFPDSSTHRRLFHKSDGSTVSVPMMAQTNKFNYTEFTTPDGHYYDILELPYHGDTLSMFIAAPYEKEVPLSALTNILSAQLISHWKGNMTRLPRLLVLPKFSLETEVDLRKPLENLGMTDMFRQFQADFTSLSDQEPLHVALALQKVKIEVNESGTVASSSTAVIVSARMAPEEIIIDRPFLFVVRHNPTGTVLFMGQVMEP
As for B1, the “IC50, inhibition of TPA-induced fibrinolysis of human plasma clots (0.5 nM TPA, 2 hrs)” value stood at 4.53 nM.
